Experimental data from the supplement of paper PMC10065799, “High-throughput profiling of sequence recognition by tyrosine kinases and SH2 domains using bacterial peptide display” (eLife, 2023).
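Note: 11-residue human phosphosite peptides and single-mutation variants displayed on the E. coli surface, counted by deep sequencing, each peptide's frequency after selection divided by its frequency in the unselected input library; frequency after pTyr selection over input frequency; kinase dosed for 20-30% of maximal phosphorylation in three min.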

Each sequence was assayed against FGFR3 (UniProt P22607) (assay: phosphorylation enrichment, bacterial display (enrichment ratio); higher = better substrate or ligand; peptides without Tyr show the background).
FGFR3, sequence (P22607 whole entry, looked up): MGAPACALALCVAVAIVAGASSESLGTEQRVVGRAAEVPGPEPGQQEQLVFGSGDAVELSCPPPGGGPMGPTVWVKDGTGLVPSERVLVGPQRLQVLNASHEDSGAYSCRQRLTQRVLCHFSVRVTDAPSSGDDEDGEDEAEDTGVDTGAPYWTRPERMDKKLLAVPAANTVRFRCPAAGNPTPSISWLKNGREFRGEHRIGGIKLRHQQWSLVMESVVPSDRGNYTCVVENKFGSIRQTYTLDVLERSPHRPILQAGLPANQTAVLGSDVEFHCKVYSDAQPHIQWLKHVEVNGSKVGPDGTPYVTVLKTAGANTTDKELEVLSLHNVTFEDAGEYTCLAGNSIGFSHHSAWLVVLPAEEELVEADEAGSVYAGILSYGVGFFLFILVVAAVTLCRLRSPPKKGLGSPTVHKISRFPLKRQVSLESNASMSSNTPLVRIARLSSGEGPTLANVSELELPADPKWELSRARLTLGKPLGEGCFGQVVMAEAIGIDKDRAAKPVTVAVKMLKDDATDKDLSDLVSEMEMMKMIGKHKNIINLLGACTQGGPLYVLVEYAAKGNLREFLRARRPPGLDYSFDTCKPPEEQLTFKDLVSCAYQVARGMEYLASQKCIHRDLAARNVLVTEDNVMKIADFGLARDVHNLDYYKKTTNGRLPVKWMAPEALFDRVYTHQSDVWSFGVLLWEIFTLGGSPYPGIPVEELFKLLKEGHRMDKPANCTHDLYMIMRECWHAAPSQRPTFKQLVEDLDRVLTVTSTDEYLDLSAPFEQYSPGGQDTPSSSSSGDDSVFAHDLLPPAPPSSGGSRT
Work on IFKAAYFGVFD [SLC25A4_Y191_R188K_YF] yielded a phosphorylation enrichment of 0.65.
VVSMNYRVGAL [BCHE_Y174] gave a phosphorylation enrichment of 0.534.
Sequence HIILLYIFLKN [STXBP1_Y411_R406H] has a phosphorylation enrichment of 1.08.
RSDEDYLFREE [POR_Y573_YF] was tested, and the phosphorylation enrichment was 1.34.
Work on SDVSSYLEGQA [GCG_Y110] yielded a phosphorylation enrichment of 0.657.
With YDKEYYSVHNK [MET_Y1235] the phosphorylation enrichment was 2.95.
LGQRIYQYIQS [DYRK1B_Y271] was tested, and the phosphorylation enrichment was 3.3.
With SQAPGYSFTAA [CYCS_Y47_G42S_YF] the phosphorylation enrichment was 0.53.
For QPGTDYKIFLF [FN1_Y1970_YF], the phosphorylation enrichment was 1.21.
Work on HFMELYDLNRD [BBS2_Y648_R643H_YF] yielded a phosphorylation enrichment of 0.723.
For KASRKYYAMKI [AKT3_Y173_G171R], the phosphorylation enrichment was 0.353.
Sequence TSHKGYVAFLE [CARD9_Y76_G72S] has a phosphorylation enrichment of 0.554.
Work on DTKAFYPEEIS [HSPA1A_Y115_E110D] yielded a phosphorylation enrichment of 0.88.
YLRTGYSIPYG [TGM1_Y370_V372I] was tested, and the phosphorylation enrichment was 0.574.
With DVCKNYTEAKD [ALB_Y343_A344T] the phosphorylation enrichment was 0.613.
In the case of ALCHYYKLNII [ETV6_Y402_R399C], the phosphorylation enrichment is reported as 5.13.
Work on SMEGLYSSAQD [CLIC5_Y111_T114A] yielded a phosphorylation enrichment of 0.908.
Sequence APSGNYVACGG [GNB1_Y111] has a phosphorylation enrichment of 1.07.
In the case of ATGGFYSYGGG [KRT24_Y120], the phosphorylation enrichment is reported as 0.659.
Work on GFKVRYATWSI [FGFR1_Y210_YF] yielded a phosphorylation enrichment of 0.795.
In the case of FKDGQYWIRGW [ACSF3_Y466_R471W], the phosphorylation enrichment is reported as 0.551.
LKGIRYLTSGL [PIGA_Y82_R77L] showed a phosphorylation enrichment of 0.452.
In the case of MFNPCYGLFEY [NEDD4L_Y680_Y679C], the phosphorylation enrichment is reported as 0.752.
GGQVFYNSEYG [FLT4_Y1333] was tested, and the phosphorylation enrichment was 0.558.
SSPMKYQQNVS [EGFEM1P_Y160] gave a phosphorylation enrichment of 0.408.
MNPPPYSQLLS [FGF23_Y154_F157L] was tested, and the phosphorylation enrichment was 0.71.
In the case of SDVCMYRKNTF [SYNE2_Y570_I574T_YF], the phosphorylation enrichment is reported as 0.571.
SGGSSYGSGGG [KRT1_Y532] showed a phosphorylation enrichment of 0.389.
KKMEVYQSIAD [MYBPC3_Y548_L545M] showed a phosphorylation enrichment of 0.681.

The sequences below were run against EPHB1 (UniProt P54762) in the same assay as above.
EPHB1, sequence (P54762 whole entry, looked up): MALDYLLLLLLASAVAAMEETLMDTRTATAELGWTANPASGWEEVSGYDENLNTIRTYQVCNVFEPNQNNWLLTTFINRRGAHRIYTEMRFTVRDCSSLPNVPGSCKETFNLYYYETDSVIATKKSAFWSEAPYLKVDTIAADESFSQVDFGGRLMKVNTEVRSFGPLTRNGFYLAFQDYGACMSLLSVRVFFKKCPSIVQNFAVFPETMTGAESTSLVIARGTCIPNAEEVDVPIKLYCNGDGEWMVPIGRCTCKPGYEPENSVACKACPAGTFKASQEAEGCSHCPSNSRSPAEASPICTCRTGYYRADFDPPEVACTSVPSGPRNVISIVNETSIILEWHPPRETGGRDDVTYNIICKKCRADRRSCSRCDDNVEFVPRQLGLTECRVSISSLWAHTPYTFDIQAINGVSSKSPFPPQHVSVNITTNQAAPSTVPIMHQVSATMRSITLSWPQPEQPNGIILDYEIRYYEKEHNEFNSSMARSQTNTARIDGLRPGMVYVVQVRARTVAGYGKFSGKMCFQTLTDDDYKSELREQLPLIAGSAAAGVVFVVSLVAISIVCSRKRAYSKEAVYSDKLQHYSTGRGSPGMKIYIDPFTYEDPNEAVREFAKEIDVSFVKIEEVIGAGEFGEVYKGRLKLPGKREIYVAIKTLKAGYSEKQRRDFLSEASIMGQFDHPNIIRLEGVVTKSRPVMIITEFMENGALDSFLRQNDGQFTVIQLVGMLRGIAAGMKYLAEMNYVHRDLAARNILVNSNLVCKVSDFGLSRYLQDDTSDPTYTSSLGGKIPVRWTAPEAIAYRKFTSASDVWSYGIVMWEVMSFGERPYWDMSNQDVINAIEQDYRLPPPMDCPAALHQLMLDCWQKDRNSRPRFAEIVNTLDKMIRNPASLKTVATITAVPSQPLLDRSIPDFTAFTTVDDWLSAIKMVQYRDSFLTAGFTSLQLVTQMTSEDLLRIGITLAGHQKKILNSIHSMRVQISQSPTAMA
With IFKAAYFGVFD [SLC25A4_Y191_R188K_YF] the phosphorylation enrichment was 0.587.
VVSMNYRVGAL [BCHE_Y174] was tested, and the phosphorylation enrichment was 0.511.
HIILLYIFLKN [STXBP1_Y411_R406H] was tested, and the phosphorylation enrichment was 0.906.
In the case of RSDEDYLFREE [POR_Y573_YF], the phosphorylation enrichment is reported as 0.865.
In the case of SDVSSYLEGQA [GCG_Y110], the phosphorylation enrichment is reported as 0.469.
YDKEYYSVHNK [MET_Y1235] showed a phosphorylation enrichment of 0.542.
LGQRIYQYIQS [DYRK1B_Y271] gave a phosphorylation enrichment of 20.9.
Work on SQAPGYSFTAA [CYCS_Y47_G42S_YF] yielded a phosphorylation enrichment of 0.433.
In the case of QPGTDYKIFLF [FN1_Y1970_YF], the phosphorylation enrichment is reported as 1.05.
In the case of HFMELYDLNRD [BBS2_Y648_R643H_YF], the phosphorylation enrichment is reported as 0.625.
KASRKYYAMKI [AKT3_Y173_G171R] was tested, and the phosphorylation enrichment was 0.22.
For TSHKGYVAFLE [CARD9_Y76_G72S], the phosphorylation enrichment was 0.451.
In the case of DTKAFYPEEIS [HSPA1A_Y115_E110D], the phosphorylation enrichment is reported as 0.456.
With YLRTGYSIPYG [TGM1_Y370_V372I] the phosphorylation enrichment was 0.451.
With DVCKNYTEAKD [ALB_Y343_A344T] the phosphorylation enrichment was 0.555.
Sequence ALCHYYKLNII [ETV6_Y402_R399C] has a phosphorylation enrichment of 0.97.
Work on SMEGLYSSAQD [CLIC5_Y111_T114A] yielded a phosphorylation enrichment of 1.62.
Work on APSGNYVACGG [GNB1_Y111] yielded a phosphorylation enrichment of 0.822.
With ATGGFYSYGGG [KRT24_Y120] the phosphorylation enrichment was 0.881.
Sequence GFKVRYATWSI [FGFR1_Y210_YF] has a phosphorylation enrichment of 0.714.
FKDGQYWIRGW [ACSF3_Y466_R471W] showed a phosphorylation enrichment of 0.624.
Work on LKGIRYLTSGL [PIGA_Y82_R77L] yielded a phosphorylation enrichment of 1.12.
MFNPCYGLFEY [NEDD4L_Y680_Y679C] gave a phosphorylation enrichment of 0.739.
GGQVFYNSEYG [FLT4_Y1333] showed a phosphorylation enrichment of 0.402.
Work on SSPMKYQQNVS [EGFEM1P_Y160] yielded a phosphorylation enrichment of 0.319.
Work on MNPPPYSQLLS [FGF23_Y154_F157L] yielded a phosphorylation enrichment of 0.639.
For SDVCMYRKNTF [SYNE2_Y570_I574T_YF], the phosphorylation enrichment was 0.551.
With SGGSSYGSGGG [KRT1_Y532] the phosphorylation enrichment was 0.381.
With KKMEVYQSIAD [MYBPC3_Y548_L545M] the phosphorylation enrichment was 0.745.

The sequences below were run on AncSZ in the same assay as above.
Sequence IFKAAYFGVFD [SLC25A4_Y191_R188K_YF] has a phosphorylation enrichment of 1.1.
Sequence VVSMNYRVGAL [BCHE_Y174] has a phosphorylation enrichment of 0.703.
HIILLYIFLKN [STXBP1_Y411_R406H] showed a phosphorylation enrichment of 1.27.
Sequence RSDEDYLFREE [POR_Y573_YF] has a phosphorylation enrichment of 1.47.
SDVSSYLEGQA [GCG_Y110] was tested, and the phosphorylation enrichment was 0.867.
In the case of YDKEYYSVHNK [MET_Y1235], the phosphorylation enrichment is reported as 1.36.
In the case of LGQRIYQYIQS [DYRK1B_Y271], the phosphorylation enrichment is reported as 1.54.
Sequence SQAPGYSFTAA [CYCS_Y47_G42S_YF] has a phosphorylation enrichment of 0.673.
Sequence QPGTDYKIFLF [FN1_Y1970_YF] has a phosphorylation enrichment of 2.09.
In the case of HFMELYDLNRD [BBS2_Y648_R643H_YF], the phosphorylation enrichment is reported as 1.1.
Sequence KASRKYYAMKI [AKT3_Y173_G171R] has a phosphorylation enrichment of 0.416.
In the case of TSHKGYVAFLE [CARD9_Y76_G72S], the phosphorylation enrichment is reported as 0.707.
Sequence DTKAFYPEEIS [HSPA1A_Y115_E110D] has a phosphorylation enrichment of 1.05.
Work on YLRTGYSIPYG [TGM1_Y370_V372I] yielded a phosphorylation enrichment of 0.777.
In the case of DVCKNYTEAKD [ALB_Y343_A344T], the phosphorylation enrichment is reported as 0.92.
ALCHYYKLNII [ETV6_Y402_R399C] showed a phosphorylation enrichment of 1.59.
SMEGLYSSAQD [CLIC5_Y111_T114A] gave a phosphorylation enrichment of 1.51.
APSGNYVACGG [GNB1_Y111] was tested, and the phosphorylation enrichment was 1.13.
For ATGGFYSYGGG [KRT24_Y120], the phosphorylation enrichment was 0.906.
GFKVRYATWSI [FGFR1_Y210_YF] showed a phosphorylation enrichment of 1.11.
FKDGQYWIRGW [ACSF3_Y466_R471W] gave a phosphorylation enrichment of 0.998.
LKGIRYLTSGL [PIGA_Y82_R77L] gave a phosphorylation enrichment of 1.03.
With MFNPCYGLFEY [NEDD4L_Y680_Y679C] the phosphorylation enrichment was 1.26.
GGQVFYNSEYG [FLT4_Y1333] was tested, and the phosphorylation enrichment was 0.719.
For SSPMKYQQNVS [EGFEM1P_Y160], the phosphorylation enrichment was 0.541.
For MNPPPYSQLLS [FGF23_Y154_F157L], the phosphorylation enrichment was 0.692.
Sequence SDVCMYRKNTF [SYNE2_Y570_I574T_YF] has a phosphorylation enrichment of 0.711.
With SGGSSYGSGGG [KRT1_Y532] the phosphorylation enrichment was 0.506.
With KKMEVYQSIAD [MYBPC3_Y548_L545M] the phosphorylation enrichment was 0.927.

Each sequence was assayed against MERTK (UniProt Q12866) in the same assay as above.
MERTK, sequence (Q12866 whole entry, looked up): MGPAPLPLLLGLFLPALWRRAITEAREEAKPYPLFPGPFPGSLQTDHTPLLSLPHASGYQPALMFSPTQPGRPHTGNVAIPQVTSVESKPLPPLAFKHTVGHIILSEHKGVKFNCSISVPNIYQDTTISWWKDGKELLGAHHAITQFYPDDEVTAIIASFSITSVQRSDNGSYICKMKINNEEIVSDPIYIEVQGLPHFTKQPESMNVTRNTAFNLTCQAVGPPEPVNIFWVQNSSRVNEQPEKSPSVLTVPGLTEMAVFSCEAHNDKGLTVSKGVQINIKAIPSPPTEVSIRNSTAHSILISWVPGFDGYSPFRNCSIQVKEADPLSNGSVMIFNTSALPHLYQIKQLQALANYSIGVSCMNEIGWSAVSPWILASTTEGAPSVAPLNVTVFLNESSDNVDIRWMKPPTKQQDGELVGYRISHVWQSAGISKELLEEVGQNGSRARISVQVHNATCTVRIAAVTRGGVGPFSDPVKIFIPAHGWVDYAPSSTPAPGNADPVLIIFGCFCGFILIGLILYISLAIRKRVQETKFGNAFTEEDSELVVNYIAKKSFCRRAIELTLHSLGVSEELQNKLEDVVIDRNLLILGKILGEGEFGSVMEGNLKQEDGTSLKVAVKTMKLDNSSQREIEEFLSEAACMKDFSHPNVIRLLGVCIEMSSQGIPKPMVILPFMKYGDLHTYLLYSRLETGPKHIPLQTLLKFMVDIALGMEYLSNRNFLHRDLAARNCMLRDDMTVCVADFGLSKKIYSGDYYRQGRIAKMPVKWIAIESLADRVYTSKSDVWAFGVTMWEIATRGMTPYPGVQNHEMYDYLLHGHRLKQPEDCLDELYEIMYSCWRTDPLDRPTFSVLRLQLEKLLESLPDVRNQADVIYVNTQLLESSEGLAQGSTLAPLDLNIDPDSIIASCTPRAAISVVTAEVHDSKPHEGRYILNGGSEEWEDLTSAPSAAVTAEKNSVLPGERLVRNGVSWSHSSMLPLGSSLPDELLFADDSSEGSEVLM
With IFKAAYFGVFD [SLC25A4_Y191_R188K_YF] the phosphorylation enrichment was 0.531.
For VVSMNYRVGAL [BCHE_Y174], the phosphorylation enrichment was 0.362.
HIILLYIFLKN [STXBP1_Y411_R406H] showed a phosphorylation enrichment of 0.657.
For RSDEDYLFREE [POR_Y573_YF], the phosphorylation enrichment was 0.592.
In the case of SDVSSYLEGQA [GCG_Y110], the phosphorylation enrichment is reported as 0.432.
With YDKEYYSVHNK [MET_Y1235] the phosphorylation enrichment was 0.441.
Sequence LGQRIYQYIQS [DYRK1B_Y271] has a phosphorylation enrichment of 13.5.
SQAPGYSFTAA [CYCS_Y47_G42S_YF] gave a phosphorylation enrichment of 0.49.
In the case of QPGTDYKIFLF [FN1_Y1970_YF], the phosphorylation enrichment is reported as 0.673.
In the case of HFMELYDLNRD [BBS2_Y648_R643H_YF], the phosphorylation enrichment is reported as 0.563.
KASRKYYAMKI [AKT3_Y173_G171R] gave a phosphorylation enrichment of 0.5.
TSHKGYVAFLE [CARD9_Y76_G72S] showed a phosphorylation enrichment of 0.38.
With DTKAFYPEEIS [HSPA1A_Y115_E110D] the phosphorylation enrichment was 0.432.
Sequence YLRTGYSIPYG [TGM1_Y370_V372I] has a phosphorylation enrichment of 1.21.
DVCKNYTEAKD [ALB_Y343_A344T] gave a phosphorylation enrichment of 0.5.
For ALCHYYKLNII [ETV6_Y402_R399C], the phosphorylation enrichment was 2.26.
SMEGLYSSAQD [CLIC5_Y111_T114A] gave a phosphorylation enrichment of 1.52.
Work on APSGNYVACGG [GNB1_Y111] yielded a phosphorylation enrichment of 0.437.
Sequence ATGGFYSYGGG [KRT24_Y120] has a phosphorylation enrichment of 11.6.
GFKVRYATWSI [FGFR1_Y210_YF] gave a phosphorylation enrichment of 0.499.
For FKDGQYWIRGW [ACSF3_Y466_R471W], the phosphorylation enrichment was 0.345.
LKGIRYLTSGL [PIGA_Y82_R77L] was tested, and the phosphorylation enrichment was 0.644.
With MFNPCYGLFEY [NEDD4L_Y680_Y679C] the phosphorylation enrichment was 1.69.
Sequence GGQVFYNSEYG [FLT4_Y1333] has a phosphorylation enrichment of 0.467.
In the case of SSPMKYQQNVS [EGFEM1P_Y160], the phosphorylation enrichment is reported as 0.398.
For MNPPPYSQLLS [FGF23_Y154_F157L], the phosphorylation enrichment was 0.451.
With SDVCMYRKNTF [SYNE2_Y570_I574T_YF] the phosphorylation enrichment was 0.4.
In the case of SGGSSYGSGGG [KRT1_Y532], the phosphorylation enrichment is reported as 0.362.
In the case of KKMEVYQSIAD [MYBPC3_Y548_L545M], the phosphorylation enrichment is reported as 0.451.
